Assay results from the supplement of paper PMC9170038.

test system: MS2 coat protein; experiment: apparent KD of MS2 coat protein, switch ON state; designed switch direction (-1 OFF switch, 1 ON switch): -1; higher = weaker reporter binding; conditions: FMN input: 0 or 200 uM; Eterna round: R93 (includes R88 designs)
How it was run: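 Apparent KD per design is the median of normalised cluster binding-curve fits. Designed RNA switches transcribed on-chip from Illumina sequencing clusters were titrated with SNAP-549-labelled MS2 coat protein in twofold steps from 0.7 or 1.5 nM to 3 µM, with 0.8–1.5 h down to 10–20 min per step. Buffer: 100 mM Tris-HCl pH 7.5, 80 mM KCl, 4 mM MgCl2, without or with constant ligand.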

In order of rising “apparent KD of MS2 coat protein” value:
1. AGUCAUACAGGAUAUACAUGAGGAUCACCCAUGUAAAUCCUAAAAAGAAAAAAAUCAUGUAGAAGGGUAUGACA [EX3 224: Super Stable 24]  13 nM
2. AAAAAUGGAGGAUAUACAUGAGGAUCACCCAUGUGUAACUAAACAAAACACAAAAAAAGUAGAAGGCCAAAAAA [Gilly Gone Silly 6 - Jieux - Exclusion 3]  14.5 nM
3. AAGAAGACAGGAUAUACAUGAGGAUCACCCAUGUAAAAGAAAGAGGGAAAAGAGAAAAGUAGAAGGGUCAAGAA [Ptolemy III Euergetes I]  16.8 nM
4. AAGAUGUCAGGAUAUACAUAAAUAAAAAAUUAUGUUAAAACACAUGAGGAUCACCCAUGUAGAAGGGACAUCAA [AJ 7]  17.2 nM
5. GAUCCACAUGAGGAUCACCCAUGUGAGGAUAUCGUGCAGAAAAAAAAAAAAAACUGCACGAGAAGGCACAUGGG  19.4 nM
6. AAGUCCAUAGGAUAUAUAUGGAUAUACAUUUAUGUAGAACUACAUGAGGAUCACCCAUGUAGAAGGAUGGAAUA [Mat - Same state - Mayanna Mod - D141]  19.5 nM
7. AAAAAACAUGAGGAUCACCCAUGUCAGGAUAUCGAAAGAAAAAAAAAGAAAGAAAAAACGAGAAGGGACAAAAA [Amethyst 29]  20.1 nM
8. CUCAAGUUAGGAUAUGUAAGAAAAGAAGAGAAAGAAAAGAAACAGAAGGAACAUGAGGAUCACCCAUGUAAGAA [EteRNA is fun!]  22.1 nM
9. CUGGUGUCAGGAUAUGCAUAGCAGUGACCAAAACCCGGUCAGCAGAAGGGACAUGAGGAUCACCCAUGUUAAAG [Alatele]  22.3 nM
10. AAAAAUGGAGGAUAUACAUGAGGAUCACCCAUGUGUGGCCAUACUAUGUGGGCGUCAGGUAGAAGGCCAAAAAA [Gilly Gone Silly 24 - Jieux - Exclusion 3]  22.3 nM
11. AACUAACAUGAGGAUCACCCAUGUCAGGAUAUGCAUCGAUCGAUCGAUCGAUCGAUCAGCAGAAGGGACAAAAA [Amethyst 92]  22.3 nM
12. GGAAAACAUGAGGAUCACCCAUGUAAGGAUAUGCUAAGGAAGGAAAAAAACCCACCAGGCAGAAGGUACUAAAG [Janelle Amethyst 18 Mod 4 - Jieux - Exclusion 1]  23.1 nM
13. UAAAAGUGAGGAUAUGUCAAAAGUCACAAAAGUGACAAAAGACAGAAGGCACAUGAGGAUCACCCAUGUGAAAU [Mat - Exaclusion 4 - Eli mod - D56]  23.3 nM
14. GAAAAGUGAGGAUAUGUCAAAAGUCACAAAAGUGACAAAAGACAGAAGGCACAUGAGGAUCACCCAUGUGAAAA [Mat - Exaclusion 4 - Eli mod - D55]  24.2 nM
15. CUCUUGUAAGGAUAUGACUACAUAAAAAAAAAAAAAUGUAGUCAGAAGGUACAUGAGGAUCACCCAUGUACAAA [Brourd - Exclusion 4 - Sub 1]  24.5 nM
16. AAAAUACGAGGAUAUACAUGAGGAUCACCCAUGUCAAAAAAUGACUACACAAAAGAAAGUAGAAGGCGUAAAAA [Ex 3 May 16]  25.3 nM
17. GAAAACAUAGGAUAUACAUGAGGAUCACCCAUGUUAAAAUAAAGAAAGGGAGAAAUAAGUAGAAGGAUGAAAAA [Mat - Mod of Meechl]  25.6 nM
18. AUGUACCUAGGAUAUACAUGAGGAUCACCCAUGUAUUGGGAGCAAUCAAGUUAAUAUUGUAGAAGGAGGUGAAA [JR_Exc003_Sub316]  25.7 nM
19. GGUUGGCAAGGAUAUACAUGAGGAUCACCCAUGUGAGAGAAAAAAGUGAGAAAGAAAAGUAGAAGGUGUUGACG [salish99-ex3-75]  26.8 nM
20. AACAUGUGAGGAUAUAAAAGAAAAGAAAAGAAAGAAAAGAAUUAGAAGGCACAUGAGGAUCACCCAUGUAAGAA [EteRNA is fun!]  28.2 nM
21. GCUUGCGAAGGAUAUACAUGAGGAUCACCCAUGUGAGAGAAAAAAGUGAGAAAGAAAAGUAGAAGGUCGUGAGG [salish99-ex3-95]  28.3 nM
22. AACAGGUCAGGAUAUGUGGAAAAAAUAAAAAAAAUAAAAACACAGAAGGGACAUGAGGAUCACCCAUGUCAACA [May 24]  30 nM
23. AAAUAGCAAGGAUAUACAUGAGGAUCACCCAUGUGAACCAGGUAUGGAAUAGAAUAGAGUAGAAGGUGCAAAUA [Mod 3 of Ex 3 Tesla 8 - Jieux - Exclusion 3]  30.2 nM
24. AAAAAGGGAGGAUAUACAGGAGGUAAGGAAAAAAAAAAAAAACAUGAGGAUCACCCAUGUAGAAGGCUUAAAAA [Ecls2-IV]  30.3 nM
25. AACAUACAUGAGGAUCACCCAUGUUAGGAUAUGCCGGGUUAGAGCCAACUAAAAAACCGUAGAAGGGACGAAAA [Bilbo Confounded 10 - Jieux - Exclusion 1]  30.7 nM
26. AAAAAACAUGAGGAUCACCCAUGUGAGGAUAUGCUAUGGAAAUAAAAAAUAAAACAUAGCAGAAGGCACACCAA [Mat - Exclusion 1 - Eli mod - D44]  31 nM
27. CAUUCACAUGAGGAUCACCCAUGUAAGGAUAUCGAAAUAUAACUAAUCAAUAAACAAACGAGAAGGUACAAAAA [Exclusion 1 design 10]  33.7 nM
28. AGGGUACAUGAGGAUCACCCAUGUUAGGAUAUAGAAAAGAAAAGAAAAGAAAGAAGAACUAGAAGGGACAAGAA [Unas]  34.8 nM
29. AAGAACUGAGGAUAUACAUGAGGAUCACCCAUGUAAAAGAAAGAAAAGGGAAAGAAAAGUAGAAGGCAGAAGAA [Nebmaatre Amenhotep III]  36.9 nM
30. AAAAAGAGAGGAUAUACAUGAGGAUCACCCAUGUGACAUUAAAUAAAUAAAAUAAAGUGUAGAAGGCUCAAAAA [65%, Moding Exclusion3-cac2, 23]  38.1 nM
31. AAAACGGUAGGAUAUACAAUUGAGAACUAGAUCGAAAAAAAACAUGAGGAUCACCCAUGUAGAAGGGCCAAAAA [Ex2 Malc#10]  38.2 nM
32. AAGGAGUGAGGAUAUCGGAAAGGACACGAAAGUGACAAAGACGAGAAGGCACAUGAGGAUCACCCAUGUAAAAA [milkweed 22]  38.7 nM
33. AAAAAGUCAGGAUAUAUAGGAAAAAUAAAAAAAAUAAAACUAUAGAAGGGACAUGAGGAUCACCCAUGUUAAAA [Ex 4 May 15]  45.4 nM
34. AAGAAGCGAGGAUAUACAAAAUAAAAGAAAAGAAAGAAAGAACAUGAGGAUCACCCAUGUAGAAGGUGCAAGAA [Sehetepkare Intef IV]  46.7 nM
35. CUCUAGUGAGGAUAUGGAAGAAAAGAAAAGAAAGAAAAGAACCAGAAGGCACAUGAGGAUCACCCAUGUAAGAA [EteRNA is fun!]  47.7 nM
36. CAGUACUGAGGAUAUACAUGAGGAUCACCCAUGUGUAAAAGCUAGGAAACUAGCACAUGUAGAAGGCAGUACUG [Ex3: 815]  48.3 nM
37. AAAAAGGCAGGAUAUACGAGUCAAAGAAAAGACAAAAAGGGACAUGAGGAUCACCCAUGUAGAAGGGCCAAAAA [Fiskers exclusion D2 62% 4]  51.6 nM
38. CUCUUGUCAGGAUAUUCAAGAAAAGAAGAGAAAGAAAAGAAGAAGAAGGGACAUGAGGAUCACCCAUGUAAGAA [EteRNA is fun!]  52.4 nM
39. AAAAUGUUAGGAUAUGUGAAGGCGUCUGAUAGACGAGGCCUGCAGAAGGGACAUGAGGAUCACCCAUGUAAAAA [Mod 1 of Nando's Round 1 Power Srip]  53.9 nM
40. AGUCAGAGAGGAUAUACAUGAAAAAAAAAAGUAAGAUCCCUACAUGAGGAUCACCCAUGUAGAAGGCUCUGACA [Ex2 Design 137: Sub-opt 1]  60.5 nM
41. CUCAUGUUAGGAUAUUUAUGAAAUGAAGUGAAAGAAAAGAAAAAGAAGGAACAUGAGGAUCACCCAUGUUAGAA [EteRNA is fun!]  65.2 nM
42. CAAAGGUGAGGAUAUGCAUAACUAUGACGAAAGUCAUAAACACAUGAGGAUCACCCAUGUAGAAGGCGCCACAA [e2-3]  78.8 nM
43. AACAAGACAGGAUAUACAUGAGGAUCACCCAUGUCACAAUAAAGCAGCGUAACACAAAGUAGAAGGGUCAUGGA [Ruby 9]  83.3 nM
44. GUUAUGUGAGGAUAUAUGUAGGAAACUACAUUAAGGGUAUCACAUGAGGAUCACCCAUGUAGAAGGCGCGUAGC [Ex2Try2_Neo]  283 nM
